Experimental findings from paper PMC8102515 are described below.

Values joined by “and” are separate entries in the source; they are usually repeats but may differ in a detail not shown here. Equal entries are not always repeated.

Series [1] has as its target T1, human peroxiredoxin 6 (human), P30041.
T1 chain: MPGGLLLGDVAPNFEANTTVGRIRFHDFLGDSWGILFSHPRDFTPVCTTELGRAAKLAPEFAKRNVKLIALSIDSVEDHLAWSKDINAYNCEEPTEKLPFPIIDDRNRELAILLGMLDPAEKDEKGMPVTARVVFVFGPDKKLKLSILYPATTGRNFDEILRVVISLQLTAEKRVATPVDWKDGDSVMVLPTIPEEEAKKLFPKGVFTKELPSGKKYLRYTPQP
The experiment in a line: dynamic light scattering; hPrdx6 1.0 mg/ml, pH 6.0; fixed angle of 90°, laser 689 nm. The following applies: remark: other sources report otherwise.

The target is the same in series [2]. The experiment in a line: dynamic light scattering; hPrdx6 1.0 mg/ml, pH 5.0; fixed angle of 90°, laser 689 nm; two peaks. The following applies: remark: other sources report otherwise.
Series [3] shares this target. Kind of series: dynamic light scattering; hPrdx6 1.0 mg/ml, pH 7.0; fixed angle of 90°, laser 689 nm; oligomer told from the hydrodynamic diameter. The following applies: remark: other sources report otherwise.
For series [4] the target is unchanged. Kind of series: dynamic light scattering; hPrdx6 1.0 mg/ml, pH 2.0; fixed angle of 90°, laser 689 nm; two peaks. The following applies: remark: other sources report otherwise.
The target is the same in series [5]. The experiment in a line: dynamic light scattering; hPrdx6 1.0 mg/ml, pH 8.0; fixed angle of 90°, laser 689 nm. The following applies: remark: other sources report otherwise.
Series [6] has the same target. Kind of series: dynamic light scattering; hPrdx6 1.0 mg/ml, pH 10.0; fixed angle of 90°, laser 689 nm. The following applies: remark: other sources report otherwise.
The target is the same in series [7]. Kind of series: dynamic light scattering; hPrdx6 1.0 mg/ml, pH 3.0; fixed angle of 90°, laser 689 nm. The following applies: remark: other sources report otherwise.
The target is the same in series [8]. Kind of series: dynamic light scattering; hPrdx6 1.0 mg/ml, pH 9.0; fixed angle of 90°, laser 689 nm. The following applies: remark: other sources report otherwise.
Series [9] shares this target. The experiment in a line: dynamic light scattering; hPrdx6 1.0 mg/ml, pH 4.0; fixed angle of 90°, laser 689 nm; oligomer told from the hydrodynamic diameter. The following applies: remark: other sources report otherwise.
In the next series the target is P30041. Kind of series: dynamic light scattering; hPrdx6 1.0 mg/ml, pH 2.0; fixed angle of 90°, laser 689 nm; two peaks. The following applies: other: dynamic light scattering.

B1: human peroxiredoxin 6, P30041 1-224 (enzyme)
chain: T1 chain
One may read the stoichiometry N as the number of molecules, sites or subunits per partner or assembly. In [1], B1 gave a stoichiometry N of 2 and a volume fraction of the dimer peak (Hd 8.12 nm) of 100%. Further, in [2], the stoichiometry N is 2 and 4; the volume fraction of the dimer peak (Hd 6.39 nm) was found to be 29.8%; the volume fraction of the tetramer peak (Hd 13.44 nm) was determined as 70.2%. In series [3], this molecule returned a stoichiometry N of 2 and a volume fraction of the dimer peak (Hd 7.1 nm) of 100%. Also, in series [4], the stoichiometry N came to 2 and the volume fraction of the larger peak (Hd 14.17 nm; the text's dimer) turned out to be 30.2%. Moreover, in series [5], the stoichiometry N came to 2 and the volume fraction of the dimer peak (Hd 6.31 nm) was found to be 100%. In series [6], this molecule registered a stoichiometry N of 2 and a volume fraction of the dimer peak (Hd 6.3 nm) of 100%. In [7], this molecule had a stoichiometry N of 4 and a volume fraction of the tetramer peak (Hd 12.2 nm) of 99.2%. In series [8], this molecule showed a stoichiometry N of 2 and a volume fraction of the dimer peak (Hd 6.4 nm) of 100%. In series [9], this molecule came in with a stoichiometry N of 4 and a volume fraction of the tetramer peak (Hd 13.75 nm) of 99.6%.

B2: human peroxiredoxin 6 (protein)
chain: T1 chain
B2 showed a volume fraction of the monomer peak (Hd 3.7 nm) with P30041 of 69.8%.
